The record followed here is patent publication US20220089642A1.

The target in this assay is SARS-CoV1.

The term Kd denotes the concentration at which binding is half-saturated. A lower Kd goes with tighter binding. What is called koff is the rate constant with which the complex falls apart. Low readings indicate slow dissociation, high ones fast dissociation. The kon is the rate constant with which the complex forms. High values mean fast association, low ones slow association. Substance “Fc-ACE2 full length construct (Fc fusion)” came in with a Kd of 1.84 nM, a koff of 0.000435 s⁻¹ and a kon of 237000 M⁻¹ s⁻¹.
